Measured values published in patent publication US7122646.

How the values were obtained:
hen egg lysozyme (hen) [1] = target: hen egg lysozyme (hen) (UniProt P00698); assay: phage ELISA with 50 µl phage supernatant, sheep anti-M13 detection; background 0.1
hen egg lysozyme (hen) [2] = target: hen egg lysozyme (hen) (UniProt P00698); assay: BIAcore, HEL coated chip

Chain of UniProt P00698 (P00698 19-147 limits assumed): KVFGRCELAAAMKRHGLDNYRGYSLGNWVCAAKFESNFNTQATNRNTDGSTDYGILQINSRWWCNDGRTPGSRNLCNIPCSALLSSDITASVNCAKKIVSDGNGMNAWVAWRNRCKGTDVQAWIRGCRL

Substance: NQ11/D1.3/0 bispecific diabody displayed on the surface of phage (bispecific antibody)
- absorbance signal (hen egg lysozyme (hen) [1]): 2.8

Substance: bispecific NQ11/D1.3 diabody, construct VI, 5 residue linkers (bispecific antibody)
- koff (hen egg lysozyme (hen) [2]): 0.0022 s⁻¹

Substance: chimaeric D1.3 Fab fragment
- koff (hen egg lysozyme (hen) [2]): 0.003 s⁻¹
